Test results as given in US9428586B2, “Heparanase splice variant” (COMPUGEN LTD, priority 2010, dated 2016).

How the values were obtained:
CAG myeloma cells = experiment: CAG myeloma tumor xenograft development and immunohistochemistry; format: in vivo, athymic nude mice
Method: FIG. 5. T5 enhances tumor xenograft development. Control (Vo), heparanase-, and T5-infected CAG myeloma cells were injected subcutaneously (1×10^6/0.1 ml) and tumor volume was calculated (A). At the end of the experiment on day 37, tumors were resected, photographed (A, inset) and weighted (B). C. Immunohistochemical analysis. Paraffin-embedded 5 micron sections were stained with hematoxilin & eosin (left column), anti-CD31 (second left column), and anti-smooth muscle actin (SMA, two right columns) antibodies. Note increased blood vessels density and maturation (recruitment of SMA-positive cells) in xenografts produced by heparanase- and T5-infected cells. Cells from exponential cultures of control-, heparanase-, and T5-infected CAG myeloma cells were detached with trypsin/EDTA, washed with PBS and brought to a concentration of 1×10^7 cells/ml. Cell suspension (1×10 6/0.1 ml) was inoculated subcutaneously at the right flank of 5-weeks old female athymic nude mice (n=7). Xenograft size was determined twice a week by externally measuring tumors in two dimensions using a caliper. At the end of the experiment, mice were sacrificed and xenografts were removed, weighted and fixed in formalin. Paraffin-embedded 5 micron sections were subjected to immunostaining with anti-PECAM-1 (CD31) or anti-smooth muscle actin (1A4, Sigma) antibodies, using the Envision kit, according to the manufacturer's (Dako, Glostrup, Denmark) instructions, as described (Fux, L., et al., 2009, Cancer Res 69, 1758-1767). All animal experiments were approved by the Animal Care Committee of the Technion, Haifa, Israel.

Src = Src phosphorylation (immunoblot, densitometry) in CAG myeloma cells; format: cell-based, human; details: infected CAG myeloma cells, serum-free
Method: FIG. 3. T5 augments Src phosphorylation. A. Over expression. CAG myeloma (left) and 293 (right) cells infected with heparanase (Hepa), T5, or control empty vector (Vo) were grown in the absence (−) or presence (+) of heparin (50 μg/ml) under serum-free conditions. Total cell lysates were subjected to immunoblotting applying anti-heparanase 1453 (upper and second panels), anti-phospho-Src (p-Src, third panels), anti-Src (fourth panels) anti-phospho-Erk (p-Erk, fifth panels), and anti-Erk2 (sixth panels) antibodies. Src phosphorylation index was calculated by densitometry analysis of phosphorylated Src levels divided by the total Src values. Data is presented as average fold increase ±SE of Src phosphorylation compared with control, Vo cells, set arbitrary to a value of 1 (lower panels) of five independent experiments. B. Gene silencing. Parental 293 cells were transfected with anti-heparanase, anti-T5, or control siRNAs. Total RNA was extracted and RT-PCR analysis was performed applying T5 (upper panel), heparanase (Hepa, second panel) and GAPDH (third panel) specific primers. Corresponding cell lysates were subjected to immunoblotting applying phospho-Src (p-Src, fourth panel), Src (fifth panel), phospho-Erk (p-Erk, sixth panel) and Erk2 (seventh panel) antibodies. Src phosphorylation index was calculated as above and is shown graphically in the lower panel. Note decreased Src phosphorylation levels upon T5 down regulation.
Preparation of cell lysates, protein blotting, and measurement of heparanase enzymatic activity were carried out as described previously (Zetser, A., et al., 2006, Cancer Res 66, 1455-1463; Fux, L., et al., 2009, Cancer Res 69, 1758-1767).

HUVEC = experiment: Tube-like structure formation on Matrigel; format: cell-based, human; details: T5 lenti virus infected HUVEC vs Vo, 24 h and 48 h
Method: FIG. 9. A. Tube-like structure formation. Human umbilical vein endothelial cells (HUVEC) were infected with control (Vo) or T5 lenti virus constructs and plated on reconstituted basement membrane (Matrigel). Spontaneous organization into tube-like structures was examined after 24 h (upper panels) and 48 h (lower panels). Note network stabilization upon T5 over expression at 48 h. B Immunofluorescent staining of control (Vo), heparanase-, and T5-infected HUVEC cells applying anti-heparanase 733 antibody (green, left panels). Merged images with nuclear staining (Topro, red) are shown in the right panels. Note T5 localization to endocytic vesicles.

Concanavalin A = Concanavalin A (Canavalia ensiformis, UniProt P02866); details: lysates of over expressing 293 cells
Method: FIG. 7. […] A. Cell lysates. […] Control (Vo), heparanase and T5 transfected 293 cells were left untreated (−) or incubated with heparin (+, 50 μg/ml) for 20 h under serum-free conditions. […] B,C. Peptide analysis. Peptides corresponding to the heparin binding domain of heparanase (KKDC) or T5 (CKKK) which includes its unique three amino acids (SKK), and control scrambled (Scr) peptide were subjected to gel electrophoresis prior to or following incubation with heparin beads (+Heparin). C. Enzymatic activity.

[1] = system: CAG myeloma, FaDu pharynx carcinoma and 293 cells; experiment: Colony formation in soft agar; format: cell-based, human; details: over expression in CAG myeloma, FaDu and 293 cells
Method: FIG. 4. T5 augments cell proliferation. A. BrdU incorporation. Morphology of control (Con), heparanase (Hepa)- and T5-infected CAG myeloma cell cultures is shown in the upper panels. […] Sub-confluent cultures of control (Vo), heparanase (Hepa)- and T5-infected CAG cells were grown in serum-free medium for 20 h followed by incubation with BrdU (1:1000) for 2 h. Cells were then fixed and immunostained with anti BrdU monoclonal antibody. Positively stained, red-brown nuclei were counted vs. blue, hematoxilin counter-stained nuclei. At least 1000 cells were counted for each cell type and the percentage of positively stained cells is noted in each panel. Fold increase in BrdU incorporation is shown graphically on the right panel. Gene silencing. 293 cells were transfected with anti-GFP (si-GFP), anti-heparanase (si-Hepa) or anti-T5 siRNA oligonucleotides and BrdU incorporation was evaluated as above except that cells were kept in serum-containing medium (lower panels). Note 2-fold decrease in BrdU incorporation following heparanase or T5 gene silencing (lower right panel). B. Colony formation in soft agar. […]
Three ml of DMEM containing 0.5% low melt agarose (Bio-Rad, Hercules, Calif.) and 10% fetal calf serum was poured into 60 mm petri dishes. […] Colonies were visualized and counted under a microscope after 2-5 weeks, as described.

B1: T5: novel splice variant of heparanase; truncated, enzymatically inactive 169 amino acid protein (protein, listed as Homo sapiens)
chain: MLLRSKPALPPPLMLLLLGPLGPLSPGALPRPAQAQDVVDLDFFTQEPLHLVSPSFLSVTIDANLATDPRFLILLGSPKLRTLARGLSPAYLRFGGTKTDFLIFDPKKESTFEERSYWQSQVNQDICKYGSIPPDVEEKLRLEWPYQEQLLLREHYQKKFKNSTYSSKK
pericytes associated with blood vessels (smooth muscle actin) (CAG myeloma cells; CAG xenografts, immunohistochemistry): significantly increased number of pericytes | average weight of xenografts (CAG myeloma cells; day 37, subcutaneous infected CAG cells, control 58±11 mg): 738 ± 114 mg | development of tumor xenografts after day 21 vs control cells (CAG myeloma cells; subcutaneous infected CAG cells): markedly enhanced | Src phosphorylation increase vs control Vo cells (Src): comparable induction of Src phosphorylation | endothelial cell organization (tube formation) on Matrigel (HUVEC): maintained for a relatively long period of time | interaction with the lectin Concanavalin A (Concanavalin A): retained | colony number, size and cell density in soft agar [1]: markedly increased
